Assays:
H3/H4 = H3/H4 (Xenopus, UniProt P84233 21-136; P62799 17-103)
H2A/H2B dimer = H2A/H2B dimer (Xenopus, UniProt P06897 2-123; P02281 1-126)

| Kd (H3/H4) | Kd (H2A/H2B dimer) | Binder |
| --- | --- | --- |
| 1110 nM | 171 nM | Npm tail domain (residues 119–195) (domain or fragment) MEEDYSWAEEEDEGEEEEEEEEDPESPPKAVKRPAATKKAGQAKKKKLDKEDESSEEDSPTKKGKGAGRGRKPAAKK |
|  | 9360 nM | DYSWAEEEDE [Npm tail peptide (residues 122–131)] |

Reference: publication PMC5738438 (2017)
